Measurements reported in PMC4868700, “Use of a novel cytotoxic HEXIM1 peptide in the directed breast cancer therapy” (Oncotarget, 2015).
Entries after “also recorded” stand apart in the source; their conditions may differ. No end group written: not given here.

Legend:
Type in all cases: cell-based, Human
MCF7 cells [1] = test: Internalization and intracellular distribution of FITC-labeled peptides, confocal microscopy; conditions: MCF7, FITC-labeled peptides 30 μM, 30 min, washed three times with PBS, Figure 6A
Description: (§1) Figure 6 The un-tagged HEXIM1 BR peptide fails to enter cells by itself (A) MCF7 cells were cultured on glass slides overnight before incubation with the indicated FITC-labeled peptides (30 μM) for 30 min and subsequently analyzed by laser scanning confocal microscopy. Nuclei were visualized by DAPI. Cells treated with vehicle, DMSO (0.5%) were used as control. Representative fluorescent images are shown (bar, 10 μm). (B) The FITC-positive cells were quantified by flow cytometry. Data represent percentage of fluorescence-positive cells in total cell population. Results were summarized as mean ± SD of three independent experiments (***P < 0.0001, Student's t test).
To determine the ability of FITC-labeled peptides to enter the cells and to visualize intracellular distribution of the peptides, MCF7 cells were plated on 4-chamber glass cover slides (Lab-Tek) to adhere overnight, incubated with FITC-labeled peptides (30 μM) for 30 min, and then washed three times with PBS before being fixed and mounted with DAPI-containing mounting solution (Vectashield). Images were acquired using a Nikon A1R confocal laser scanning microscope equipped with a 60 × oil-immersion objective lens (SBIC-Nikon Imaging Centre).

MCF7 cells [2] = test: Internalized fluorescent peptide by flow cytometry; conditions: MCF7, FITC-labeled peptides 30 μM, 30 min at 37°C, washed, trypsinized, mean of three independent experiments, Figure 6B
Description: as §1
MCF7 cells were plated on 6-cm culture dish to allow overnight adherence. FITC-labeled peptides (30 μM) were added to the cells, incubated for 30 min at 37°C, and subsequently washed three times with PBS. The cells were then trypsinized, collected by centrifugation, and finally resuspended in 500 μl ice-cold 2% FBS-containing PBS for flow cytometry analysis.

MCF7 cells [3] = test: Cell viability (CellTiter-Glo); conditions: MCF7, different concentrations overnight, Figure 5A, 5C
Description: (§2) Cells were plated in clear-bottomed white walled 96-well plates (Corning) and incubated overnight. Cells were treated with indicated peptides in 1% FBS-containing media for overnight or indicated timings at 37°C. Cell viability was measured with CellTiter-Glo reagent (Promega) according to the manufacturer's instructions. For cytotoxicity assay, cells were plated in black walled 96-well plates (Corning) to allow them to adhere overnight. Upon treatment with a pan-caspase inhibitor, z-VAD-Fmk (100 μM) (Sigma) and subsequent treatment with LTV-tagged peptides, cytotoxicity induced was determined by CellTox cytotoxicity assay (Promega) 30 minutes after addition of peptides according to the manufacturer's instructions. Luminescence was determined using an Infinite 200 multiplate reader (Tecan).

MDA-MB-231 cells = test: Cell viability (CellTiter-Glo); conditions: MDA-MB-231, different concentrations overnight, Figure 5B, 5D, S2
Description: as §2

Substance | internalization and intracellular distribution of fluorescent-labeled peptide (MCF7 cells [1]) | percentage of fluorescence-positive cells in total cell population (internalized fluorescent peptide) (MCF7 cells [2]) | cell viability (MCF7 cells [3]) | cell viability (MDA-MB-231 cells)
BR-FITC: fluorescent-labeled (FITC) BR peptide (QLGKKKHRRRPSKKKRHW; also: FITC label; UniProt O94992 147-164, looked up, fragment) | no fluorescent signal was observed | no entry |  | 
BR: untagged peptide from the basic region of HEXIM1 containing the HDM2 ubiquitination residues (a.a. 147–164) (QLGKKKHRRRPSKKKRHW; UniProt O94992 147-164, looked up, fragment) |  |  | had no effect on cell viability | had no effect on cell viability; also recorded: remained highly viable
